Data reported in US20220236279A1.

Target: human atypical chemokine receptor 3 (ACKR3) (human), P25106
Assay: binding competition with CXCL12-AF647, flow cytometry
Details: chains peptide; remark: other sources report otherwise

Sequence of human atypical chemokine receptor 3 (ACKR3) (human), P25106 (P25106 whole entry): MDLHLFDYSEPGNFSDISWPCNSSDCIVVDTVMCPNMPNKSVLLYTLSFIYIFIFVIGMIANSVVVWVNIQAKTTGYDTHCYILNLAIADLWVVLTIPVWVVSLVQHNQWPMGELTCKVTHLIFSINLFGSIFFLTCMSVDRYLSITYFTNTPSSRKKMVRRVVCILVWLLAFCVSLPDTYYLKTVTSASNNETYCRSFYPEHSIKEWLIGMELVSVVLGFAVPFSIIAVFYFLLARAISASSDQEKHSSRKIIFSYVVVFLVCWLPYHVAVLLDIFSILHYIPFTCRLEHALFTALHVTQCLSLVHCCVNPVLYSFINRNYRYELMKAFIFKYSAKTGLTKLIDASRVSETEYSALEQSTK

For FGGFTGARKSARKLANQ [nociceptin, Q13519 130-146], the IC50 was over 10 µM.
